Experimental data: publication PMC5339304

Target: DC-specific intercellular adhesion molecule 3-grabbing non-integrin (DC-SIGN) (human) (UniProt Q9NNX6)
Experiment: atomic force spectroscopy (AFM force spectroscopy); MUB covalently attached to the AFM tip (MAL-PEG-SCM linker), DC-SIGN, SIGN-R1 or Dectin-2 covalently attached to glass slides (GMBS); PBS; force-volume mode, 2 um/s, maximum load force 300 pN; repeated after addition of 0.05 mg/ml anti-Mub antibody

mucus-binding protein MUB of Lactobacillus reuteri ATCC 53608 (natural protein)
modal value of binding strength: 684 pN
